US9284543B2, “Neutral active soluble truncated PH20 polypeptides and uses thereof” (Halozyme, Inc., priority 2008, dated 2016)
One block for each molecule: values may come before it.

Key:
CHO-S cells = experiment: Western blot analysis of PH20 expression in media and cells after transient expression; assay type: cell-based, Chinese Hamster; details: media versus cells
Procedure: The mutant PH20-HZ24 plasmids generated in Example 1 were transiently […] into CHO—S cells (derived from Chinese Hamster Ovary CHO K1 cells) using GeneJuice® (Novagen) according to the manufacturer's instructions. In short, the CHO—S cells were grown in CD CHO medium supplemented with L-glutamine. Prior to transfection, the CHO—S cells were plated in 6-well plates, with approximately 5×10^5 cells per well, and grown overnight at 37° C. with 5% CO2. The medium was then removed and the CHO—S cells were washed 2 times with 1 mL serum-free medium. GeneJuice® was mixed with serum-free media followed by the addition of 2 μg mutant-HZ24 DNA. After incubating at room temperature for 5-15 minutes, the GeneJuice®/DNA mixture was added dropwise to an individual well containing the washed CHO—S cells. After 4 hours, the medium was replaced with 1 mL CD-CHO medium supplemented with L-glutamine and the cells were incubated for 72 hours at 37° C. with 5% CO2. Following expression, the media and cells were harvested separately.
The mutant PH20-HZ24 plasmids generated in Example 1 were transiently […] into CHO—S cells using GeneJuice® (Novagen) according to the manufacturer's instructions. […]
In this example, following transient expression, as described in Example 2 above, the media and cells were harvested separately and analyzed for PH20 expression and solublility by Western blot analysis. Solubility of the C-terminus truncation mutants was determined by examining whether the expressed protein was present in the growth media or in the cells. […] Cells expressing these mutants were treated with phosphoinositol-phospholipase C (PI-PLC), which cleaves the GPI-anchor allowing the release of soluble protein into the media, and the presence of PH20 in the resulting media and cells was determined by Western blot analysis.
Non-reduced samples were run on a 4-20% Tris-Glycine gel and transferred to PVDF membrane using iBlot (Invitrogen). For the Western blot, rabbit anti-PH20 IgG (0.5 μg/mL) was used as the primary antibody and HRP-conjugated goat anti-rabbit IgG (0.1 ng/mL, Cat#DC03L, EMD) was used as the secondary antibody. Evidence of expression is determined by a band at approximately 66 kDa, corresponding to recombinant human PH20 hyaluronidase.

[1] = Microtiter hyaluronidase activity assay with biotinylated-hyaluronic acid; assay type: biochemical; details: Table 6, 72 hour post transfection supernatant

pH 5.5 Activity [1]: 0.0585 Units/ml
pH 7.4 Activity [1]: 0.0495 Units/ml
B1: SPAM1-VDVC: C-terminally truncated human PH20, precursor 458 aa (SEQ ID NO:39), mature 423 aa (SEQ ID NO:91) (protein, listed as Homo sapiens)
chain 1: MGVLKFKHIFFRSFVKSSGVSQIVFTFLLIPCCLTLNFRAPPVIPNVPFLWAWNAPSEFCLGKFDEPLDMSLFSFIGSPRINATGQGVTIFYVDRLGYYPYIDSITGVTVNGGIPQKISLQDHLDKAKKDITFYMPVDNLGMAVIDWEEWRPTWARNWKPKDVYKNRSIELVQQQNVQLSLTEATEKAKQEFEKAGKDFLVETIKLGKLLRPNHLWGYYLFPDCYNHHYKKPGYNGSCFNVEIKRNDDLSWLWNESTALYPSIYLNTQQSPVAATLYVRNRVREAIRVSKIPDAKSPLPVFAYTRIVFTDQVLKFLSQDELVYTFGETVALGASGIVIWGTLSIMRSMKSCLLLDNYMETILNPYIINVTLAAKMCSQVLCQEQGVCIRKNWNSSDYLHLNPDNFAIQLEKGGKFTVRGKPTLEDLEQFSEKFYCSCYSTLSCKEKADVKDTDAVDVC
chain 2: LNFRAPPVIPNVPFLWAWNAPSEFCLGKFDEPLDMSLFSFIGSPRINATGQGVTIFYVDRLGYYPYIDSITGVTVNGGIPQKISLQDHLDKAKKDITFYMPVDNLGMAVIDWEEWRPTWARNWKPKDVYKNRSIELVQQQNVQLSLTEATEKAKQEFEKAGKDFLVETIKLGKLLRPNHLWGYYLFPDCYNHHYKKPGYNGSCFNVEIKRNDDLSWLWNESTALYPSIYLNTQQSPVAATLYVRNRVREAIRVSKIPDAKSPLPVFAYTRIVFTDQVLKFLSQDELVYTFGETVALGASGIVIWGTLSIMRSMKSCLLLDNYMETILNPYIINVTLAAKMCSQVLCQEQGVCIRKNWNSSDYLHLNPDNFAIQLEKGGKFTVRGKPTLEDLEQFSEKFYCSCYSTLSCKEKADVKDTDAVDVC
modifications: HuPH20 precursor 1-458; Mature HuPH20 36-458
Expressed in Media (CHO-S cells): YES

pH 5.5 Activity [1]: 0.0135 Units/ml
pH 7.4 Activity [1]: 0 Units/ml
B2: SPAM1-VCIA: C-terminally truncated human PH20, precursor 460 aa (SEQ ID NO:38), mature 425 aa (SEQ ID NO:90) (protein, listed as Homo sapiens)
chain 1: MGVLKFKHIFFRSFVKSSGVSQIVFTFLLIPCCLTLNFRAPPVIPNVPFLWAWNAPSEFCLGKFDEPLDMSLFSFIGSPRINATGQGVTIFYVDRLGYYPYIDSITGVTVNGGIPQKISLQDHLDKAKKDITFYMPVDNLGMAVIDWEEWRPTWARNWKPKDVYKNRSIELVQQQNVQLSLTEATEKAKQEFEKAGKDFLVETIKLGKLLRPNHLWGYYLFPDCYNHHYKKPGYNGSCFNVEIKRNDDLSWLWNESTALYPSIYLNTQQSPVAATLYVRNRVREAIRVSKIPDAKSPLPVFAYTRIVFTDQVLKFLSQDELVYTFGETVALGASGIVIWGTLSIMRSMKSCLLLDNYMETILNPYIINVTLAAKMCSQVLCQEQGVCIRKNWNSSDYLHLNPDNFAIQLEKGGKFTVRGKPTLEDLEQFSEKFYCSCYSTLSCKEKADVKDTDAVDVCIA
chain 2: LNFRAPPVIPNVPFLWAWNAPSEFCLGKFDEPLDMSLFSFIGSPRINATGQGVTIFYVDRLGYYPYIDSITGVTVNGGIPQKISLQDHLDKAKKDITFYMPVDNLGMAVIDWEEWRPTWARNWKPKDVYKNRSIELVQQQNVQLSLTEATEKAKQEFEKAGKDFLVETIKLGKLLRPNHLWGYYLFPDCYNHHYKKPGYNGSCFNVEIKRNDDLSWLWNESTALYPSIYLNTQQSPVAATLYVRNRVREAIRVSKIPDAKSPLPVFAYTRIVFTDQVLKFLSQDELVYTFGETVALGASGIVIWGTLSIMRSMKSCLLLDNYMETILNPYIINVTLAAKMCSQVLCQEQGVCIRKNWNSSDYLHLNPDNFAIQLEKGGKFTVRGKPTLEDLEQFSEKFYCSCYSTLSCKEKADVKDTDAVDVCIA
modifications: HuPH20 precursor 1-460; Mature HuPH20 36-460
Expressed in Media (CHO-S cells): YES
